# Test results from the supplement of paper PMC6757056.
# ± gives the standard deviation of the averaged measurements.
# B1: library; a variant is named by its letters at N, in order (parent)
# chain: GCUGUCACCGGUGCUUGGUACGUUAUAUUCAGCCGGUCUGAUGAGUCUNNNNNNAGACGAAACAGC
# How the values were obtained:
# (6R,S)-folinic acid [1] = variants of: B1; test: normalized RNA/DNA level without ligand (relative to sTRSVctl = 100) (log10 (% of sTRSVctl)); HEK293T overexpressing SLC46A1; higher = less ribozyme self-cleavage, higher mRNA level; conditions: without (6R,S)-folinic acid; ligand present: no
# Procedure, shortened: (§1)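 Ribozyme switch library plasmids with mCherry reporters (eGFP in certain ligand experiments) went into HEK293T cells at 4 µg per 6-well well. Where ligand was used, it was applied 1 h before transfection, and total RNA was extracted with EDTA 72 h later for reverse transcription, amplification, barcoding and sequencing. RNA level is the RNA-to-DNA read ratio normalized to a spiked-in non-cleaving sequence or to the leading sequences, then scaled and log-transformed. Scaling was ×100 with log10, the leading set comprised 25 sequences, and the cutoff was ≥100 DNA reads.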
# (6R,S)-folinic acid [2] = variants of: B1; test: normalized RNA/DNA level with ligand (relative to sTRSVctl = 100) (log10 (% of sTRSVctl)); HEK293T overexpressing SLC46A1; ligand concentration (+) RNA-Seq: 6 mM; higher = less ribozyme self-cleavage, higher mRNA level; conditions: with (6R,S)-folinic acid; ligand present: yes
# Procedure, shortened: as §1
Variant,"normalized RNA/DNA level without ligand (log10) ((6R,S)-folinic acid [1])","normalized RNA/DNA level with ligand (log10) ((6R,S)-folinic acid [2])"
CCGGUA,2.01 ± 0.038,2.009 ± 0.011
CCGGUC,2.0714 ± 0.0011,2.03 ± 0.069
GCUGAG,1.974 ± 0.013,2.04 ± 0.039
GCUGAC,1.986 ± 0.0051,2.01 ± 0.045
CCUUCA,2.07 ± 0.021,2.04 ± 0.079
UCUCAU,2.032 ± 0.015,2.023 ± 0.011
UCUCAG,1.958 ± 0.012,1.98 ± 0.027
UCUCAA,1.96 ± 0.0096,1.98 ± 0.024
UCUCAC,2.098 ± 0.0045,2.04 ± 0.035
GCGUGU,1.974 ± 0.0053,2.04 ± 0.053
GCGUGC,2.043 ± 0.019,2.03 ± 0.038
GCGUGA,1.999 ± 0.015,2.03 ± 0.038
ACUAAU,1.985 ± 0.007,2.01 ± 0.03
GCUGGC,1.964 ± 0.017,1.916 ± 0.0083
GCUGGA,2.06 ± 0.0022,2.07 ± 0.046
GCUGGG,1.979 ± 0.0048,2.01 ± 0.021
UCUGUC,2.056 ± 0.0093,2.07 ± 0.075
UCUGUG,1.773 ± 0.0022,2 ± 0.049
UCUGUA,1.961 ± 0.0025,2.04 ± 0.026
CCUAAA,1.9908 ± 0.0014,2.01 ± 0.028

Variant,"normalized RNA/DNA level without ligand (log10) ((6R,S)-folinic acid [1])","normalized RNA/DNA level with ligand (log10) ((6R,S)-folinic acid [2])"
CCUAAC,2.041 ± 0.0058,2.038 ± 0.017
GCGGUG,2.032 ± 0.0067,2.07 ± 0.07
GCGGUA,1.98 ± 0.017,2.011 ± 0.014
GCGGUC,2.06 ± 0.024,2.06 ± 0.056
GCGGUU,2.07 ± 0.0088,2.02 ± 0.05
GCUCGA,2.039 ± 0.0067,2.02 ± 0.065
GCUCGC,2.02 ± 0.027,2.0264 ± 0.00071
GCUCGG,2.034 ± 0.016,2.03 ± 0.026
UCGGUA,1.93 ± 0.029,1.985 ± 0.015
UCGGUC,2.09 ± 0.025,2.06 ± 0.051
CCGUAC,1.99 ± 0.019,2.014 ± 0.017
CCGUAA,1.981 ± 0.016,1.98 ± 0.032
CCGUAU,2.016 ± 0.0098,2.022 ± 0.0084
CCGUAG,1.93 ± 0.035,1.99 ± 0.022
ACUGAC,2.002 ± 0.0086,1.999 ± 0.0088
ACUGAU,1.9488 ± 0.0011,2 ± 0.031
CCUCUG,2.035 ± 0.011,2 ± 0.04
CCUCUC,2.072 ± 0.018,2.04 ± 0.078
CCUCUU,2.033 ± 0.012,2.022 ± 0.0093
CCUCUA,2.029 ± 0.0036,2.03 ± 0.031

Variant,"normalized RNA/DNA level without ligand (log10) ((6R,S)-folinic acid [1])","normalized RNA/DNA level with ligand (log10) ((6R,S)-folinic acid [2])"
ACGGGU,1.989 ± 0.0096,2.04 ± 0.034
GCUCCG,2.027 ± 0.0072,2.05 ± 0.055
GCUCCU,2.09 ± 0.024,2.07 ± 0.04
GCUCCA,2.02 ± 0.019,2.03 ± 0.037
GCUCCC,2.06 ± 0.031,2.06 ± 0.036
CCUGAG,1.932 ± 0.019,1.97 ± 0.025
CCUGAA,2.0009 ± 0.0006,2 ± 0.044
CCUGAC,2 ± 0.0059,1.993 ± 0.0097
CCUACC,2.0594 ± 0.00016,2.04 ± 0.041
CCUACU,2.062 ± 0.0069,2.04 ± 0.0079
CCUACG,2.072 ± 0.0081,2.0351 ± 0.0014
ACGUCC,2.03 ± 0.023,2 ± 0.068
ACGUCA,2.037 ± 0.0081,2.027 ± 0.0046
ACGUCU,2.04 ± 0.028,2.025 ± 0.013
ACGUCG,2 ± 0.022,2.06 ± 0.014
ACUACC,2.03 ± 0.0033,2.01 ± 0.04
ACUACA,1.99 ± 0.021,2.01 ± 0.021
ACUACU,2.022 ± 0.02,2.041 ± 0.0021
